This is an account of results in the supplement of paper PMC9170038.

Data set [1] relates to MS2 coat protein. The data set is described as follows: apparent KD of MS2 coat protein; higher = weaker reporter binding. As to conditions: Eterna round: R101. The protocol: (§1)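 RNA-MaP: designed FMN/MS2 RNA switches (84 nt design region) are transcribed on-chip within common flanks and titrated with SNAP-549-labelled MS2 coat protein (about 1-3000 nM) in 100 mM Tris pH 7.5, 80 mM KCl, 4 mM MgCl2, without or with 200 uM FMN. Median apparent KD per design; activation ratio = KD,OFF / KD,ON.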

In data set [2] the test system is MS2 coat protein. The data set is described as follows: apparent KD of MS2 coat protein; designed switch direction (-1 OFF switch, 1 ON switch): 1; higher = weaker reporter binding. Particulars: Eterna round: R98. As to the method:
as §1

Data set [3] relates to MS2 coat protein. The data set is described as follows: apparent KD of MS2 coat protein, switch ON state; designed switch direction (-1 OFF switch, 1 ON switch): 1; higher = weaker reporter binding. As to conditions: FMN input: 0 or 200 uM; Eterna round: R93 (includes R88 designs). The method, boiled down: (§2)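 SNAP-549-labelled MS2 coat protein was titrated onto designed RNA switches that had been transcribed on-chip from Illumina sequencing clusters. Amounts doubled from 0.7 or 1.5 nM to 3 µM in 100 mM Tris-HCl pH 7.5, 80 mM KCl, 4 mM MgCl2, with constant ligand or without. Apparent KD is the median per design of normalised cluster binding-curve fits.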

Data set [4] has as its system MS2 coat protein. The experiment in a line: apparent KD of MS2 coat protein, switch OFF state (with FMN for OFF switches, without FMN for ON switches); designed switch direction (-1 OFF switch, 1 ON switch): 1; higher = weaker reporter binding. As to conditions: FMN input: 0 or 200 uM; Eterna round: R93 (includes R88 designs). A digest of the protocol: as §2

As for “AAAAAUUCUUAAGGAUAUGACUCCGAAACGGAGUCAGAAGGUGAGGAUCACCCACCUAGCUCAGCGUCGAAAGACGCUGAGCAA [#SharedSequence ExNG1 - 28] (puzzle (switch architecture): Exclusion NG 1)”, the entries for the “apparent KD of MS2 coat protein” value in data set [1] (input ligand: FMN 200 uM) and in data set [1] (input ligand: none) were 12 nM and 10.9 nM, respectively.

Consider “CACGUCCUCACAGGAUAUGCUGGACUUUGUCCAGCAGAAGGGUGAACAUGAGGAUCACCCAUGUAAAGGACGUGUAUAUUUAAU [Denovo 23]”, for which the “apparent KD of MS2 coat protein” value in data set [2] (input ligand: FMN 200 uM) is 72.5 nM; in data set [2] (input ligand: none), 587 nM.

For the sequence “CUGCAAUUCUUAGGAUAUGCUCAGGAAUACUGAGCAGAAGGAAGAUAUACCUGAGGAUCACCCAGGUUAAACUGGAGCAGAAUA [Same State NG1 - A3C, U17G Submission 8A]”, the “apparent KD of MS2 coat protein” value in data set [2] (input ligand: FMN 200 uM) was 32.2 nM; in data set [2] (input ligand: none), 181 nM.

For the sequence “UUGGUUGUCGUAGGAUAUGUAGGAUAUUCCUACAUGAGGAUCACCCAUGUUCGCAUGGAAGAAGGACAGAAGGACGAUGACCAU [salish99_SSNG2_001 #endbits investigation] (puzzle (switch architecture): Same State NG 2)”, the “apparent KD of MS2 coat protein” value in data set [1] (input ligand: FMN 200 uM) stood at 9.52 nM; in data set [1] (input ligand: none), 1280 nM.

For “UGCUAACUGUAGAAGGGUGACAUGAGGAUCACCCAUGUGCACGCGCGCUUUACGGCGCGCGUGCCACAGGAUAUACAGUUGAGU [Erora] (puzzle (switch architecture): Inverted Same State NG 2)”, the figures for the “apparent KD of MS2 coat protein” value in data set [1] (input ligand: FMN 200 uM) and in data set [1] (input ligand: none) were 55.1 nM and 43.1 nM, respectively.

Regarding “CAUGUCCUCACAGGAUAUGCUGGACUUUGUCCAGCAGAAGGGUGAACAUGAGGAUCACCCAUGUAAUGGACAUGUAUAUUUAAG [Mat - Same State NG 1 - Eli mod - D98]”, the “apparent KD of MS2 coat protein” value in data set [2] (input ligand: FMN 200 uM) is 49.4 nM; in data set [2] (input ligand: none), 902 nM.

On to “CUAUUAUAUGUAGGAUAUGCAUAUUAUUAUUGUGCAGAAGGACAUGAGGAUCACCCAUGUAUAUUAUUAUUAUAUAUUAUAUAU (puzzle (switch architecture): Exclusion NG 1)”, for which the “apparent KD of MS2 coat protein” value in data set [1] (input ligand: FMN 200 uM) was 11.8 nM; in data set [1] (input ligand: none), 16.5 nM.

Regarding “GGAGGAGGAUAAGGAUAUAACAUGAGGAUCACCCAUGUGGAGGAGGAGGAGGAGGAGGAGGAGGGUUAGAAGGUAUGGAGGAGG [First attempt] (puzzle (switch architecture): Exclusion NG 2)”, the “apparent KD of MS2 coat protein” value was found to be 11 nM in data set [1] (input ligand: FMN 200 uM) and 16.2 nM in data set [1] (input ligand: none).

In the case of “GGGUACAUCGGAGGAUAUCAUGUAAAUACAUGAGGAUCACCCAUGUCGAUGGAGACAUAGGAGAUUGAGAAGGCCGAUGUACCG (puzzle (switch architecture): Same State NG 2)”, the “apparent KD of MS2 coat protein” value in data set [1] (input ligand: FMN 200 uM) turned out to be 144 nM; in data set [1] (input ligand: none), 74 nM.

For “AAAUAAAUUGAAGGAUAUGACCCUCGAGGUGACUAAAAGUCACCUCGAGGGUCAGAAGGUCGAGGAUCACCCGAUCUAAAUAAA [#SharedSequence SLExNG1: 1-1] (puzzle (switch architecture): Small Loop Exclusion NG 1)”, the “apparent KD of MS2 coat protein” value in data set [1] (input ligand: FMN 200 uM) was 13.1 nM; in data set [1] (input ligand: none), 8.27 nM.

Consider “AAUAAACAAUAAAAGAGUCCACGAAACUUCUGAGGAUCACCCAGAAGGGCUGAGGUAAUACCUCAGCAGGAUAUGGACGUGGAC [#SharedSequence IExNG# - 1] (puzzle (switch architecture): Inverted Exclusion NG 3)”, for which the “apparent KD of MS2 coat protein” value in data set [1] (input ligand: FMN 200 uM) was determined as 5.09 nM; in data set [1] (input ligand: none), 5 nM.

In the case of “AGAAACUACGAGAAGGACAUGUGGUCCUUCAAAAAAAUGAGGAUCACCCAUGUAGGAUAUCGUAGUUUCAGGAUCGUGAGAUCA [salish99_ISLExNG1_x101 #HINGE] (puzzle (switch architecture): Inverted Small Loop Exclusion NG 1)”, the “apparent KD of MS2 coat protein” value in data set [1] (input ligand: FMN 200 uM) is 9.58 nM; in data set [1] (input ligand: none), 30 nM.

“AAGUGAAAUCAGAAGGGCUCCAGCAAAGCUGGAGCAGGAUAUGAGGAUCACCCAUAUCACCUGACGGUCGAAACGACCGUCAGG [#SharedSequence - IExNG1: 5-1] (puzzle (switch architecture): Inverted Exclusion NG 1)”: the “apparent KD of MS2 coat protein” value turned out to be 147 nM in data set [1] (input ligand: FMN 200 uM) and 21.2 nM in data set [1] (input ligand: none).

“GGAGAUACAUGAGGAUCACCCAUGUAGGAUAUCGGGCCCAUACCCGGCGAAAGCCGGGUAUGGGCCGAGAAGGGCGUACACACC [#LOL-5] (puzzle (switch architecture): Small Loop Exclusion NG 3)”: the “apparent KD of MS2 coat protein” value in data set [1] (input ligand: FMN 200 uM) was found to be 7.47 nM; in data set [1] (input ligand: none) it was 8.26 nM.

With “AAAUAAACUCAAGGAUAUCAGUGGCAAAGCCACUGAGAAGGUGAGGAUCACCCACCUAAGAUCACAGGUGACGAAAGUCACCUG [#SharedSequence ExNG1 - 37] (puzzle (switch architecture): Exclusion NG 1)”, the “apparent KD of MS2 coat protein” value in data set [1] (input ligand: FMN 200 uM) stood at 17.6 nM; in data set [1] (input ligand: none), 11.2 nM.

For the sequence “AAAUGAUAUCAGAAGGGCUCCAGCAAAGCUGGAGCAGGAUAUGAGGAUCACCCAUAUCACCUGACGGUCGAAACGACCGUCAGG [#SharedSequence - IExNG1: 7-1] (puzzle (switch architecture): Inverted Exclusion NG 1)”, the “apparent KD of MS2 coat protein” value came out at 62.1 nM in data set [1] (input ligand: FMN 200 uM) and 15.5 nM in data set [1] (input ligand: none).

For “AAAUAACUUGAAGGAUAUGACCCUCGAGGUGACUAAAAGUCACCUCGAGGGUCAGAAGGUCGAGGAUCACCCGACCAAGUGAAA [#SharedSequence SLExNG1: 9] (puzzle (switch architecture): Small Loop Exclusion NG 1)”, the “apparent KD of MS2 coat protein” value in data set [1] (input ligand: FMN 200 uM) came to 13.3 nM; in data set [1] (input ligand: none) it was 9.17 nM.

For “AAUAAAACUCAAGGAUAUCAGUGGCAAAGCCACUGAGAAGGUGAGGAUCACCCACCUACGUGACGCUGGAAACAGCGUCACGAA [#SharedSequence ExNG1 - 33] (puzzle (switch architecture): Exclusion NG 1)”, the “apparent KD of MS2 coat protein” value in data set [1] (input ligand: FMN 200 uM) is 36.3 nM; in data set [1] (input ligand: none) it was 15.8 nM.

In the case of “UGGUACAUGGGAGGAUAUGGGUUGAUAACAUGAGGAUCACCCAUGUUAAAUAAGCCGAGAGGCUACUAGAAGGCCCAUGUACCU [#InverseDoubleMagnetSystem - JL SNG1 3.00 18] (puzzle (switch architecture): Same State NG 2)”, the figures for the “apparent KD of MS2 coat protein” value in data set [1] (input ligand: FMN 200 uM) and in data set [1] (input ligand: none) were 10.6 nM and 293 nM, respectively.

Regarding “CGCUAUGAUGGUUGUAAUAGAGCAUAGGAUAUGCUUGUACAUGAGGAUCACCCAUGUUAUAUUUUGCAGAAGGGUGCAUUUGCG [JR #DistanceFar #Hairpin #NP SLSSNG3 Sub073] (puzzle (switch architecture): Small Loop Same State NG 3)”, the “apparent KD of MS2 coat protein” value in data set [1] (input ligand: FMN 200 uM) amounted to 30.1 nM; in data set [1] (input ligand: none), 59.9 nM.

For the sequence “GGAGACCUUACAGGAUAUGCUGGACUUUGUCCAGCAGAAGGGUGAAUACAUGAGGAUCACCCAUGUAUGGUCUCCAAAUUUAAU [jl-ssng1-3.05 #GC_VS_GU_SWITCHING] (puzzle (switch architecture): Same State NG 1)”, the “apparent KD of MS2 coat protein” value was 121 nM in data set [1] (input ligand: FMN 200 uM) and 52.2 nM in data set [1] (input ligand: none).

For “AAAAAAAAAACUCAGGAUAUAGAUUGUUGAACAUGAGGAUCACCCAUGUAGUGAAAAGCGAAAAACUAGAAGGGAGGAAAAAAAAA [SameState2-03]”, the “apparent KD of MS2 coat protein” value was determined as 30.5 nM in data set [3] and 63.3 nM in data set [4].

As to “AGACAUAACAGAGAGGAUAUCCAAUAGAAAACAUGAGGAUCACCCAUGUGAAAGAUAAUAAAAUGGGAGAAGGCUCACAUACAGA [Topaz 40]”, the “apparent KD of MS2 coat protein” value was determined as 19.5 nM in data set [3] and 30.4 nM in data set [4].

On to “GGAAAACAUGAGGAUCACCCAUGUUAGUGUCAUUAAGGAUAUGGGCUUAAGAAUUUGAGACUAGAAGGUGAUGCGC [Soisla]”, for which the “apparent KD of MS2 coat protein” value turned out to be 21.8 nM in data set [3] and 49.2 nM in data set [4].

For the sequence “AACAACAAUAUGAAGGAUAUCCACAACAAGACAUGAGGAUCACCCAUGUAAACUUAGAACAUACAGGAGAAGGUCAAGGGUGAAU [JR_SS002_Sub1204]”, the “apparent KD of MS2 coat protein” value in data set [3] came to 221 nM; in data set [4], 63.2 nM.

Take “AACUACAUUAUGAAGGAUAUCCACAUCAAGACAUGAGGAUCACCCAUGUAAACUUAGAACAUACAGGAGAAGGUCAAGGGUGAAU [JR_SS002_Sub1206]”: the “apparent KD of MS2 coat protein” value in data set [3] came to 234 nM; in data set [4], 69.2 nM.

Consider “ACUUCACAUGAGGAUCACCCAUGUCAGGCCGGACUAGGAUAUUAUCAUGCAGCGUAACCAUAAGAAGGAGUAGGAA [JR_SS001_Sub314]”, for which the figures for the “apparent KD of MS2 coat protein” value in data set [3] and in data set [4] were 136 nM and 57.3 nM, respectively.

With “AAUAAUUAUACGAAGGAUAUCGGUAAUUAGACAUGAGGAUCACCCAUGUAAUAAGGUUAAAUAAACGAGAAGGUCGAGGGUGAAA [JR_SS002_Sub501]”, the “apparent KD of MS2 coat protein” value was 66.9 nM in data set [3] and 41.5 nM in data set [4].

As for “UAAAAUAAAACAUAGGAUAUCAAAAUAAAAACAUGAGGAUCACCCAUGUGAAAACAUGAGAAGGAUGAGAAGGAAAAUAAAAUAA [Meechl SS2 R2 m1]”, the figures for the “apparent KD of MS2 coat protein” value in data set [3] and in data set [4] were 25.7 nM and 51.6 nM, respectively.
